{
  "source": "patent US7022313B2",
  "about": "“Hydrogel particle formulation” (PowderJect Research Ltd., priority 1999, dated 2006)",
  "experiment": "LDH specific activity after lyophilization (colorimetric endpoint assay)",
  "format": "biochemical",
  "protocol": "Lactate dehydrogenase (LDH) was obtained from Sigma Chemicals (L1254; Lot 96H9568). Bio-Gel A15M was obtained from Bio-Rad (Cat. No. 151-1050) as a powder having a MMAD of 20-150 μm. LDH activity was measured using an endpoint, colorimetric assay (Sigma No. 500). All other reagents were obtained from Fisher Scientific and were ACS-grade or better.\nThe Bio-Gel A15M resin was washed with water to remove preservative and then poured into a disposable 1×10 cm column to a final column volume of approximately 5 mL. The column was equilibrated with 5 mL sodium citrate, pH 6 containing 5% (w/v) mannitol. LDH was dissolved in the same buffer at 2 mg/mL final concentration. A 5 mL sample of this solution was loaded to the column and allowed to fully penetrate.\nThe resin was emptied from the column and lyophilized. After lyophilization the resin was re-suspended in water and poured back into the column. The column was then eluted with a 5 mL portion of the buffer. […]\nThe protein concentration of each solution was determined by absorbance at 280 nm using a Hewlett-Packard UV-VIS Spectrophotometer. […] The absorbance of the color formed is inversely proportional to the LDH activity. LDH specific activity was calculated by dividing the […].",
  "data": [
    {"substance": "Lactate dehydrogenase [LDH]", "values": [
      {"measurement": "specific activity, % of the starting material", "setting": "LDH loaded on agarose beads (Bio-Gel A15M), lyophilized, eluted, preliminary", "result": "about 40%"},
      {"measurement": "specific activity, % of the starting material", "setting": "LDH recovered after lyophilization from solution", "result": 98, "unit": "%"}
    ]}
  ]
}
